# Read-outs that look alike come from different tables or passages of the source.
# B1: 8mer dsDNA (dsDNA)
# DNA 1: CTCGCGAG
# DNA 2: CTCGCGAG
# B2: C-terminal His6-tagged Neisseria HU protein (natural protein, UniProt P64389 1-89, looked up)
# chain: MNKSELIEAIAQEADISKAAAQKALDATTNAVTTALKQGDTVTLVGFGTFYVGERAERQGRNPKTGEPLTIAAAKTPKFRAGKALKDAL
# B3: N-terminal His10-tagged DMP12 (natural protein, N. meningitidis, UniProt Q9JXC6 1-118, looked up)
# chain: MNEHNLLIFCLKDNVSISEYTEMIDWAYKNIQSETVVEITENQIIEYQNRGLWRLVSEITDNWLFGPSEGDWLIDKESILAVKEKLQNSDFSTEPLVKNIIHVLEYAIKNEKTVIFHF
# Experiments:
# HU (C-His6) = target: T1, HU (C-His6) (Neisseria meningitidis, UniProt P64389 1-89); assay: ITC
# T1 sequence: B2 chain
# [1] = target: T2, DMP12 (Neisseria meningitidis conserved hypothetical protein NMB2123), tag-free (N. meningitidis, UniProt Q9JXC6 1-118); assay: ITC
# T2 sequence (looked up): B3 chain
# AUC = target: the molecule itself; assay: AUC
# [2] = target: T2, DMP12 (Neisseria meningitidis conserved …); assay: ITC; remark: listed apart in the source
# SEC = target: the molecule itself; assay: SEC
# [3] = target: B2; assay: SEC
binder,measurement,setting,value
B1,Kd,HU (C-His6),720 ± 60 nM
B2,Kd,[1],2810 ± 430 nM
same,stoichiometry N,AUC,2
same,Kd,[2],2820 ± 430 nM
same,dH,[2],-6.17 ± 0.55 kcal/mol
same,stoichiometry N,[2],0.96 ± 0.01
same,stoichiometry N,SEC,2
B3,stoichiometry N,[3],1 DMP12 monomer per HU dimer
